Results as given in article PMC10585736 (2023).

B1: Pol30p (PCNA), wild type, of the POL30-0 strain [S. cerevisiae] / Rrm3p-Myc [S. cerevisiae] (parent complex)
chain 1: MLEAKFEEASLFKRIIDGFKDCVQLVNFQCKEDGIIAQAVDDSRVLLVSLEIGVEAFQEYRCDHPVTLGMDLTSLSKILRCGNNTDTLTLIADNTPDSIILLFEDTKKDRIAEYSLKLMDIDADFLKIEELQYDSTLSLPSSEFSKIVRDLSQLSDSINIMITKETIKFVADGDIGSGSVIIKPFVDMEHPETSIKLEMDQPVDLTFGAKYLLDIIKGSSLSDRVGIRLSSEAPALFQFDLKSGFLQFFLAPKFNDEE
chain 2: MFRSHASGNKKQWSKRSSNGSTPAASASGSHAYRQQTLSSFFMGCGKKSAAASKNSTTIIDLESGDEGNRNITAPPRPRLIRNNSSSLFSQSQGSFGDDDPDAEFKKLVDVPRLNSYKKSSRSLSMTSSLHKTASASTTQKTYHFDEDETLREVTSVKSNSRQLSFTSTINIEDSSMKLSTDSERPAKRSKPSMEFQGLKLTVPKKIKPLLRKTVSNMDSMNHRSASSPVVLTMEQERVVNLIVKKRTNVFYTGSAGTGKSVILQTIIRQLSSLYGKESIAITASTGLAAVTIGGSTLHKWSGIGIGNKTIDQLVKKIQSQKDLLAAWRYTKVLIIDEISMVDGNLLDKLEQIARRIRKNDDPFGGIQLVLTGDFFQLPPVAKKDEHNVVKFCFESEMWKRCIQKTILLTKVFRQQDNKLIDILNAIRYGELTVDIAKTIRNLNRDIDYADGIAPTELYATRREVELSNVKKLQSLPGDLYEFKAVDNAPERYQAILDSSLMVEKVVALKEDAQVMMLKNKPDVELVNGSLGKVLFFVTESLVVKMKEIYKIVDDEVVMDMRLVSRVIGNPLLKESKEFRQDLNARPLARLERLKILINYAVKISPHKEKFPYVRWTVGKNKYIHELMVPERFPIDIPRENVGLERTQIPLMLCWALSIHKAQGQTIQRLKVDLRRIFEAGQVYVALSRAVTMDTLQVLNFDPGKIRTNERVKDFYKRLETLK

Variants of: B1
Test: co-immunoprecipitation, western blot band quantification; α-Myc IP; parent: 2.1; read off a plot

Question: For chain 1 L126A, chain 1 I128A, which response is on record?
Answer: Its response is ~1.8 pixel density fold over input signal.
